Our source for the suppression of the fast inactivating aKv1/FL whole-cell current in co-transfected CHO cells after 1.5 hours of blue light and reduction in current density values is paper PMC7987177.

Experiment [1] has as its target wild-type Aplysia Kv1 voltage-gated potassium channel subunit, full-length (aKv1/FL) (Aplysia).
For experiment [2] the target is unchanged. The source holds these as a separate data set.

In experiment [1], “Opto-aKv1/SL/V400D (dominant-negative, short-length Opto-aKv1 subunit: aKv1 N-terminus, VfAu1 LOV domain, aKv1 from the T1 domain on, pore mutation V400D)” yielded a suppression of the fast inactivating aKv1/FL whole-cell current in co-transfected CHO cells after 1.5 hours of blue light of 70%. The same substance registered a reduction in current density at +80 mV in cerebellar granule cells electroporated with both constructs, after 1.5 hours of blue light in experiment [2] of 80%.
